According to patent EP4585618A1 (Jiangsu Hengrui Pharmaceuticals Co., Ltd., dated 2025):

B1: humanized antibody huP2-G9 (antibody, human IgG1, kappa, L234A L235A, V domains shown)
VH: EVQLQESGPGLVKPSQTLSLTCTVSGSSITSGYYWNWIRQHPGKGLEWIGYLSYDGSNNYNPSLKNLVTISRDTSKNQFSLKLSSVTAADTAVYYCAREGAHYSGTLSWFAYWGQGTLVTVSS
VL: DIQMTQSPSSLSASVGDRVTITCRASENIYSNLAWYQQKPGKSPKLLVYAATNLADGVPSRFSGSGSGTDYTLTISSLQPEDFATYYCQHFWDTPYTFGGGTKVEIKR
notes: Full chains; also called P2-G9H1L2
B2: chimeric antibody ChP1-D7 (antibody, human IgG4 S228P, kappa, F234A L235A, V domains shown)
VH: QIQLVQSGPDLKKPGETVKISCKASGYTFTTYGMNWVKQAPGKALKWMGWINTYSGVPTYADDFKGRFAFSLETSATTAYLQINNLKNEDTATYFCARRTDYDGYVMDCWGQGTSVTVSS
VL: DIVMSQSPSSLAVSIGEKVTMSCKSSQSLFYSGNQKNYLAWYLQKPGQSPKLLLYWASTRESGVPDRFTGSGSGTDFTLTISSVMAEDLAVYYCQQYFSYPPTFGGGTKLEIKR
notes: Murine variable regions with hIgG4(LALA) and CL constant regions; also called M P1-D7
B3: chimeric antibody ChP1-C4 (antibody, human IgG4 S228P, kappa, F234A L235A, V domains shown)
VH: QVQLKQSGAELVRPGASVKLSCKASGYSFTDYYINWVKQRPGQGLEWIARIYPGNDNTYYNEKFKDKATLTADSSSSTAYMQLSSLTSEDSAVYFCTRSQDGYYEENAMDYWGQGTSVTVSS
VL: DIQMTQSPASLSVSVGETVTITCRASENIYSNLAWYQQRQGKSPQLLVYAATNLADGVPFRFSGSGSGTQYSLKINSLQSEDFGSYYCQQFWGSPHTFGGGTKLEIKR
notes: Murine variable regions with hIgG4(LALA) and CL constant regions; also called M P1-C4

target: T1, LILRA6-His (Acro, LI6-H82E2) (human, UniProt Q6PI73 24-447); experiment: ELISA, coated protein 1 µg/mL, antibody 10 µg/mL
T1 construct: Bought protein. 'Human' stands at the head of the list of coated proteins; not shown: His tag
T1 sequence (Q6PI73 24-447 limits assumed): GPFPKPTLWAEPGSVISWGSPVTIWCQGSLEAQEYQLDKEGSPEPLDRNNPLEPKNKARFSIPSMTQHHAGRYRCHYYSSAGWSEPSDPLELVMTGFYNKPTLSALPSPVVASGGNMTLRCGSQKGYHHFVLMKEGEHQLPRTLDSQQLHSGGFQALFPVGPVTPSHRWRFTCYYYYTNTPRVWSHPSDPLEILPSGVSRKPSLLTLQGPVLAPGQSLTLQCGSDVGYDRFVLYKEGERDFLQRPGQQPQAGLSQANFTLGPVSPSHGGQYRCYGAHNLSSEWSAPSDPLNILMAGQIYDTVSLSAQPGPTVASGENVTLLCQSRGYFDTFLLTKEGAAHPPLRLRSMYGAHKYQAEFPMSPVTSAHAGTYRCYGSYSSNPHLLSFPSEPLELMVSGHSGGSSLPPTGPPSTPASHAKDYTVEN

| absorbance at 450 nm [absorbance at 450 nm] | Binder |
| --- | --- |
| 0.0449 | B1 |

target: T2, LILRA4-His (SinoBiological, 16058-H08H) (human, UniProt P59901 24-446); experiment: ELISA, coated protein 1 µg/mL, antibody 10 µg/mL
T2 construct: Bought protein. 'Human' stands at the head of the list of coated proteins; not shown: His tag
T2 sequence (P59901 24-446 limits assumed): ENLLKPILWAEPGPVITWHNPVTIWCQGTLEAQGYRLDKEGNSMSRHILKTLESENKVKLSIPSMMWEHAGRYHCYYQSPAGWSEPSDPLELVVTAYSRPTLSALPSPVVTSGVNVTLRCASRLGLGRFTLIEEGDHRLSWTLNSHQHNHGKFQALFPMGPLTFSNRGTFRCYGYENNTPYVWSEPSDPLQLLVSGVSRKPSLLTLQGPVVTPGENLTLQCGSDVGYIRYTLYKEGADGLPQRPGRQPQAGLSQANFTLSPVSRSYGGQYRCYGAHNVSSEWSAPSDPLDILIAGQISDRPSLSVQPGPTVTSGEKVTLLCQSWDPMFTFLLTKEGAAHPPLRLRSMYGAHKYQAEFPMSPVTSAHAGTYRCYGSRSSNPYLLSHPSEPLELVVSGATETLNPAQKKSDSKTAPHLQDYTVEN

| absorbance at 450 nm [absorbance at 450 nm] | Binder |
| --- | --- |
| 0.0674 | B1 |

target: T3, LILRB5-His (Acro, CDC-H5220) (human, UniProt O75023 24-458, limits assumed); experiment: ELISA, coated protein 1 µg/mL, antibody 10 µg/mL
T3 construct: Bought protein. 'Human' stands at the head of the list of coated proteins; not shown: His tag
T3 sequence (O75023 24-458 limits assumed): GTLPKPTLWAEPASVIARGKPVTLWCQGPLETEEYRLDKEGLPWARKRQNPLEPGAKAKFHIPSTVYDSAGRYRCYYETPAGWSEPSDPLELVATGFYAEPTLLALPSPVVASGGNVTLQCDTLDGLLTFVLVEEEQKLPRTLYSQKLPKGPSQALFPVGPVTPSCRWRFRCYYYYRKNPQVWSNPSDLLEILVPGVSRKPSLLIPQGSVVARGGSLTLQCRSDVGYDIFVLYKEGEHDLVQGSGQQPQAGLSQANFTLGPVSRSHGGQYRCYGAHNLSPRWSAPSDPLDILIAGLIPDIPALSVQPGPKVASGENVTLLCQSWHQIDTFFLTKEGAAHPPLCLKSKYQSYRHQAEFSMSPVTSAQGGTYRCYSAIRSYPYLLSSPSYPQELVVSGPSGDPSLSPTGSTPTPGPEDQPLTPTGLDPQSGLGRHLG

| absorbance at 450 nm [absorbance at 450 nm] | Binder |
| --- | --- |
| 0.0533 | B1 |

target: T4, His-tagged ILT3 protein extracellular domain: ILT3-His (human, UniProt Q8NHJ6 22-259); experiment: ELISA, coated protein 1 µg/mL, antibody 10 µg/mL
T4 construct: The entry is the whole construct, with the His tag

| absorbance at 450 nm [absorbance at 450 nm] | Binder |
| --- | --- |
| 0.0564 | B1 |

target: T5, His-tagged ILT2 protein extracellular domain: ILT2-His (human, UniProt Q8NHL6 24-461); experiment: ELISA, coated protein 1 µg/mL, antibody 10 µg/mL
T5 construct: The entry is the whole construct, with the His tag; also called human ILT2 protein
T5 sequence (Q8NHL6 other isoform, or with tags, fused parts or gaps): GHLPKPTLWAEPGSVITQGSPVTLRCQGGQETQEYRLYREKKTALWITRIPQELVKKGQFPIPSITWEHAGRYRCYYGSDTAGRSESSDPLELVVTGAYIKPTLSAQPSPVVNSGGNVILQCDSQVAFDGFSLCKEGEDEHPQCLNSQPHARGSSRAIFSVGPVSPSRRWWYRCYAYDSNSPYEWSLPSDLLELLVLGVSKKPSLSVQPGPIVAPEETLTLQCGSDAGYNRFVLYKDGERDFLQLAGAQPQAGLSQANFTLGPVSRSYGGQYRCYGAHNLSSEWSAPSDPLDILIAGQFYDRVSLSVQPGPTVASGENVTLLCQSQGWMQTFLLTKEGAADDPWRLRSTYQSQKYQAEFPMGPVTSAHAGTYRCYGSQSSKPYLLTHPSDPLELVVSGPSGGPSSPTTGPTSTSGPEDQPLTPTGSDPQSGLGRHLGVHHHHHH

| absorbance at 450 nm [absorbance at 450 nm] | Binder |
| --- | --- |
| 0.0541 | B1 |

target: T6, LILRA3-His (Acro, LI3-H82E0) (human, UniProt Q8N6C8 24-439); experiment: ELISA, coated protein 1 µg/mL, antibody 10 µg/mL
T6 construct: Bought protein. 'Human' stands at the head of the list of coated proteins; not shown: His tag
T6 sequence (Q8N6C8 24-439 limits assumed): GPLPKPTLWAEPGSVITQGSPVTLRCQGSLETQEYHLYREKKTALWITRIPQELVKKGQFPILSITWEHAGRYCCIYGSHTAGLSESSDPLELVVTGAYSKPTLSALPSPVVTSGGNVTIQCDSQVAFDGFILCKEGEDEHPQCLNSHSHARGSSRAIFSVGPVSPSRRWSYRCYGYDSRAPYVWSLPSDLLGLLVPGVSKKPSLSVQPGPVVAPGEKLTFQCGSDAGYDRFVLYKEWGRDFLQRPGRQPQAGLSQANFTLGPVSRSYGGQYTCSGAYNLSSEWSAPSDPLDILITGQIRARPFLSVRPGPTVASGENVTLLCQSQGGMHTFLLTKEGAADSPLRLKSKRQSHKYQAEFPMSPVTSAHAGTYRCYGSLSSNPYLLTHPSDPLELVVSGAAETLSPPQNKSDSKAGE

| absorbance at 450 nm [absorbance at 450 nm] | Binder |
| --- | --- |
| 0.0461 | B1 |

target: T7, LILRA2-His (Acro, LI2-H82E9) (human, UniProt Q8N149 24-449); experiment: ELISA, coated protein 1 µg/mL, antibody 10 µg/mL
T7 construct: Bought protein. 'Human' stands at the head of the list of coated proteins; not shown: His tag
T7 sequence (Q8N149 24-449 limits assumed): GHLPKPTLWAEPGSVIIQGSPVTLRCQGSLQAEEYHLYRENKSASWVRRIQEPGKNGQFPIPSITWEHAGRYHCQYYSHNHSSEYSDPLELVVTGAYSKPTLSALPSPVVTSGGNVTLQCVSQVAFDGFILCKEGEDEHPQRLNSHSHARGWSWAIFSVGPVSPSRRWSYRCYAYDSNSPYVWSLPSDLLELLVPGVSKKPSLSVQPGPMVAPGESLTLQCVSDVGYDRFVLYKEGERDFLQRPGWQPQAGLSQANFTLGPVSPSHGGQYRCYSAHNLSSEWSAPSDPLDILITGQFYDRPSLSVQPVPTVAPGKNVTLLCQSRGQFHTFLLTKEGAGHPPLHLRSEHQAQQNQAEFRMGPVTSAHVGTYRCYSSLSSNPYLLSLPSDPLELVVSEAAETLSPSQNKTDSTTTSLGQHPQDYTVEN

| absorbance at 450 nm [absorbance at 450 nm] | Binder |
| --- | --- |
| 0.0759 | B1 |

target: T8, LILRA5-His (Acro, LI5-H82E1) (human, UniProt A6NI73 42-268); experiment: ELISA, coated protein 1 µg/mL, antibody 10 µg/mL
T8 construct: Bought protein. 'Human' stands at the head of the list of coated proteins; not shown: His tag
T8 sequence (A6NI73 42-268 limits assumed): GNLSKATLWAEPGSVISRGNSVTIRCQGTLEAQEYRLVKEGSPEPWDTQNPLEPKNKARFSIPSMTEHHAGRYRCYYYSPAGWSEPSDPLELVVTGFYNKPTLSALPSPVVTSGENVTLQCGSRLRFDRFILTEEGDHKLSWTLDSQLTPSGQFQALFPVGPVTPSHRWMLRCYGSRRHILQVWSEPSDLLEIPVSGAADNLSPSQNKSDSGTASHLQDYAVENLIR

| absorbance at 450 nm [absorbance at 450 nm] | Binder |
| --- | --- |
| 0.0441 | B1 |

target: T9, His-tagged ILT4 protein extracellular domain: ILT4-His (human, UniProt Q8N423 22-460); experiment: ELISA, coated protein 1 µg/mL, antibody 10 µg/mL
T9 construct: Expressed in 293 cells; also called human ILT4-His protein
T9 sequence (Q8N423 other isoform, or with tags, fused parts or gaps limits assumed): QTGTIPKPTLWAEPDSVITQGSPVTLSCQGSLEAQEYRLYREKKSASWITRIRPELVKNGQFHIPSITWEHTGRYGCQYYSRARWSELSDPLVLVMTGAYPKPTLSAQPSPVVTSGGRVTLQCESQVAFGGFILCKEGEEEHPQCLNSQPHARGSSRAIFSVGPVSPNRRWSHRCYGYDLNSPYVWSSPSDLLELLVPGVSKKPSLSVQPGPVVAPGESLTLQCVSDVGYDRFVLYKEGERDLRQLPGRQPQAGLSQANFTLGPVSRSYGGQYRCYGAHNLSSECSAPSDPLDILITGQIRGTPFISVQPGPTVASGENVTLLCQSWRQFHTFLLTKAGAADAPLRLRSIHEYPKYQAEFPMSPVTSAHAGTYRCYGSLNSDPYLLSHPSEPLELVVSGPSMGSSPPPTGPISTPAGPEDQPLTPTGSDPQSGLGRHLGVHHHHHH

| absorbance at 450 nm [absorbance at 450 nm] | Binder |
| --- | --- |
| 1.77 | B1 |

target: T10, LILRA1-His (Acro, LI1-H82E8) (human, UniProt O75019 17-461); experiment: ELISA, coated protein 1 µg/mL, antibody 10 µg/mL
T10 construct: Bought protein. 'Human' stands at the head of the list of coated proteins; not shown: His tag
T10 sequence (O75019 17-461 limits assumed): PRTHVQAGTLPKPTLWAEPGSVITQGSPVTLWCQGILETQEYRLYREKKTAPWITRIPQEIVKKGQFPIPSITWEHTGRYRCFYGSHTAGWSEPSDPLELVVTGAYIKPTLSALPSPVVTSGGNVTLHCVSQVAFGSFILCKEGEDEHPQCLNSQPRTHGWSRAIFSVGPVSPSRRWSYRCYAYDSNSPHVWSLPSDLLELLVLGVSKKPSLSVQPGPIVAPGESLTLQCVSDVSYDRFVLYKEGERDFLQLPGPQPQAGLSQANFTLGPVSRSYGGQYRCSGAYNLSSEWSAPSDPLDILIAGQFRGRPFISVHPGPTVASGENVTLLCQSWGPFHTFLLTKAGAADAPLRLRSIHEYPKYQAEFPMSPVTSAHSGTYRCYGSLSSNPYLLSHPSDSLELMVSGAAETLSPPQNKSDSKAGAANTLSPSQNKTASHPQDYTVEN

| absorbance at 450 nm [absorbance at 450 nm] | Binder |
| --- | --- |
| 0.0457 | B1 |

target: T1, LILRA6-His (Acro, LI6-H82E2); experiment: ELISA, coated protein 1 µg/mL

| binding result | Binder |
| --- | --- |
| no binding (tested: 10 µg/mL) | B1 |

target: T2, LILRA4-His (SinoBiological, 16058-H08H); experiment: ELISA, coated protein 1 µg/mL

| binding result | Binder |
| --- | --- |
| no binding (tested: 10 µg/mL) | B1 |

target: T3, LILRB5-His (Acro, CDC-H5220); experiment: ELISA, coated protein 1 µg/mL

| binding result | Binder |
| --- | --- |
| no binding (tested: 10 µg/mL) | B1 |

target: T4, His-tagged ILT3 protein extracellular …; experiment: ELISA, coated protein 1 µg/mL

| binding result | Binder |
| --- | --- |
| no binding (tested: 10 µg/mL) | B1 |

target: T5, His-tagged ILT2 protein extracellular …; experiment: ELISA, coated protein 1 µg/mL

| binding result | Binder |
| --- | --- |
| no binding (tested: 10 µg/mL) | B1 |

target: T6, LILRA3-His (Acro, LI3-H82E0); experiment: ELISA, coated protein 1 µg/mL

| binding result | Binder |
| --- | --- |
| no binding (tested: 10 µg/mL) | B1 |

target: T7, LILRA2-His (Acro, LI2-H82E9); experiment: ELISA, coated protein 1 µg/mL

| binding result | Binder |
| --- | --- |
| no binding (tested: 10 µg/mL) | B1 |

target: T8, LILRA5-His (Acro, LI5-H82E1); experiment: ELISA, coated protein 1 µg/mL

| binding result | Binder |
| --- | --- |
| no binding (tested: 10 µg/mL) | B1 |

target: T10, LILRA1-His (Acro, LI1-H82E8); experiment: ELISA, coated protein 1 µg/mL

| binding result | Binder |
| --- | --- |
| no binding (tested: 10 µg/mL) | B1 |

target: T9, His-tagged ILT4 protein extracellular …; experiment: ELISA, coated ILT4-His 1 µg/mL; Assay 3

| EC50 [µg/mL] | Binder |
| --- | --- |
| 0.0292 | B2 |

target: T9, His-tagged ILT4 protein extracellular …; experiment: ELISA, coated ILT4-His 1 µg/mL; Assay 1

| EC50 [µg/mL] | Binder |
| --- | --- |
| 0.0643 | B3 |

target: T9, His-tagged ILT4 protein extracellular …; experiment: SPR (Biacore), antibody captured on Protein A chip, ILT4-His as analyte, 1:1 model

| Kd [nM] | koff [s⁻¹] | kon [M⁻¹ s⁻¹] | Binder |
| --- | --- | --- | --- |
| 0.109 | 0.000109 | 999000 | B1 |

target: T11, full-length human ILT4 protein overexpressed on cells (human, UniProt Q8N423 22-597); experiment: flow cytometry competition on CHO-S/ILT4 cells; competitor CF647-labelled HLA-G tetramer; Assay 2
T11 construct: also called CHO-S/ILT4; ILT4 stably transfected cell strain
T11 sequence (Q8N423 other isoform, or with tags, fused parts or gaps limits assumed): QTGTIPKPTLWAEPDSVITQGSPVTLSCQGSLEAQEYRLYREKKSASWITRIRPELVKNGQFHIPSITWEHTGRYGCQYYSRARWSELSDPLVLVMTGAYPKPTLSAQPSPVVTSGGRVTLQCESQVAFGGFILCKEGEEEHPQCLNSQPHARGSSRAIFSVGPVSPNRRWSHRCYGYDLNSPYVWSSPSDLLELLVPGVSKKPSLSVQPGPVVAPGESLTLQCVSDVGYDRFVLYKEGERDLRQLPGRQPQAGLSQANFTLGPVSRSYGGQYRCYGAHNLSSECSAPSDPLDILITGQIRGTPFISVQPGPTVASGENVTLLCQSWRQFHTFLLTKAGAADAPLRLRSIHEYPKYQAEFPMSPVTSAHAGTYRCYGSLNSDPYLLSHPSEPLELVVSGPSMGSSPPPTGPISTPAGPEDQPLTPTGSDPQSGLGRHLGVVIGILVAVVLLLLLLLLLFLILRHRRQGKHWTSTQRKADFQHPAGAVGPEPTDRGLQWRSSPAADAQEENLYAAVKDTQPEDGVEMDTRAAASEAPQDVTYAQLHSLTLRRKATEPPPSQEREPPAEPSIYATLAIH

| IC50 [µg/mL] | Binder |
| --- | --- |
| 0.085 | B1 |
